Results from patent US10294487B2, “Methods and compositions involving ALS variants with native substrate preference” (E I DU PONT DE NEMOURS AND COMPANY, priority 2012, dated 2019).
Substitutions are numbered along the chain they refer to. Numbers in names are those of the source.

B1: UBQ10: GM-ALS_P178S_D357E: UBQ10 promoter driving ALS variant SEQ ID NO 17 in transgenic soybean (protein)
chain: MAATASRTTRFSSSSSHPTFPKRITRSTLPLSHQTLTKPNHALKIKCSISKPPTAAPFTKEAPTTEPFVSRFASGEPRKGADILVEALERQGVTTVFAYPGGASMEIHQALTRSAAIRNVLPRHEQGGVFAAEGYARSSGLPGVCIATSGPGATNLVSGLADALMDSVPVVAITGQVSRRMIGTDAFQETPIVEVSRSITKHNYLILDVDDIPRVVAEAFFVATSGRPGPVLIDIPKDVQQQLAVPNWDEPVNLPGYLARLPRPPAEAQLEHIVRLIMEAQKPVLYVGGGSLNSSAELRRFVELTGIPVASTLMGLGTFPIGDEYSLQMLGMHGTVYANYAVDNSDLLLAFGVRFDERVTGKLEAFASRAKIVHIDIDSAEIGKNKQAHVSVCADLKLALKGINMILEEKGVEGKFDLGGWREEINVQKHKFPLGYKTFQDAISPQHAIEVLDELTNGDAIVSTGVGQHQMWAAQFYKYKRPRQWLTSGGLGAMGFGLPAAIGAAVANPGAVVVDIDGDGSFIMNVQELATIRVENLPVKILLLNNQHLGMVVQWEDRFYKSNRAHTYLGDPSSESEIFPNMLKFADACGIPAARVTKKEELRAAIQRMLDTPGPYLLDVIVPHQEHVLPMIPSNGSFKDVITEGDGRTRY
B2: UBQ10: GM-ALS_A103T_P178S_D357E: UBQ10 promoter driving ALS variant SEQ ID NO 8 in transgenic soybean (protein)
chain: B1 chain with A103T
B3: SAMS: GM-ALS_A103T_P178S: SAMS promoter driving ALS variant SEQ ID NO 7 in transgenic soybean (protein)
chain: B1 chain with A103T, E357D
B4: SAMS: GM-ALS W555L: SAMS promoter driving ALS variant SEQ ID NO 26 in transgenic soybean (protein)
chain: B1 chain with S178P, E357D, W555L
B5: UBQ10: GM-ALS_A103T_P178S: UBQ10 promoter driving ALS variant SEQ ID NO 7 in transgenic soybean (protein)
chain: B1 chain with A103T, E357D
B6: SAMS: GM-ALS_P178A: SAMS promoter driving ALS variant SEQ ID NO 9 in transgenic soybean (protein)
chain: B1 chain with S178A, E357D
B7: SAMS: GM-ALS_P178A_W555L: SAMS promoter driving HRA ALS variant SEQ ID NO 10 in transgenic soybean (protein)
chain: B1 chain with S178A, E357D, W555L
B8: SAMS: GM-ALS_A103T_P178S_D357E: SAMS promoter driving ALS variant SEQ ID NO 8 in transgenic soybean (protein)
chain: B1 chain with A103T
B9: UBQ10: GM-ALS_W555L: UBQ10 promoter driving ALS variant SEQ ID NO 26 in transgenic soybean (protein)
chain: B1 chain with S178P, E357D, W555L

How the values were obtained:
Format in all cases: in vivo
soybean plants [1] = test: Chlorsulfuron spray test of transgenic T1 soybean plants; details: chlorsulfuron 3 g ai/ha foliar; homozygous T1 plants; 8 days after treatment; 0=no effect, 100=dead plant
Description: T1 plants, each having an ALS variant transgene, were grown to the V1 to V2 growth stage and then sprayed with commercial chlorsulfuron formulation at a rate of 3 g ai/ha. All chlorsulfuron treatments were applied foliarly with 0.25% nonionic surfactant in a spray volume of 374 L/ha. Individual plants were compared to untreated plants of similar genetic background, evaluated for herbicide response at eight days after treatment and assigned a visual response score from 0 to 100% injury (0=no effect to 100=dead plant at day 8).
Results in Table 8 list the lowest injury among plants of a single event for constructs containing the listed expression cassette. The amino acid substituted ALS variants provided more protection than the overexpression of the native ALS gene. Seed was produced from a number of T1 plants and advanced to more extensive herbicide testing in the T2 generation.

soybean plants [2] = test: Field spray test of homozygous T3 soybean plants with Affinity Broadspec; details: Affinity Broadspec (thifensulfuron + tribenuron) 1 oz product per acre
Description: Homozygous T3 soybean plants with and without ALS variant transgenes were grown in a field study and sprayed at the V2 to V4 growth stage with a commercial formulation of Affinity Broadspec at 1 oz product per acre (2× typical field rate). Affinity Broadspec contains 25% thifensulfuron and 25% tribenuron by volume. The herbicide was applied foliarly with nonionic surfactant. The herbicide response for individual events was determined by comparing to untreated plants of similar genetic background. Visual injury is on a scale of 0 to 100% injury (0=no effect to 100=dead plant). The substituted ALS variants gave substantially more protection to ALS-inhibitors than overexpression of the native ALS gene.

soybean plants [3] = test: Spray test of homozygous transgenic soybean plants with five ALS-inhibitor herbicides; details: homozygous T1 or T2 plants; for Lowest % injury Chlorimuron: chlorimuron 32 g ai/ha foliar; for Lowest % injury Imazapyr: imazapyr 4 g ai/ha foliar; for Lowest % injury Rimsulfuron: rimsulfuron 8 g ai/ha foliar; for Lowest % injury Thifensulfuron-methyl: thifensulfuron-methyl 16 g ai/ha foliar; for Lowest % injury Tribenuron-methyl: tribenuron-methyl 16 g ai/ha foliar
Description: T1 or T2 soybean plants were evaluated with qPCR to confirm they were homozygous for the transgene. Plants were sprayed at the V1 to V2 growth stage with the commercial formulations of chlorimuron (32 g ai/ha), tribenuron-methyl (16 g ai/ha), thifensulfuron-methyl (16 g ai/ha), rimsulfuron (8 g ai/ha), and imazapyr (4 g ai/ha). Each herbicide was applied foliarly with nonionic surfactant in a spray volume of 374 L/ha. The herbicide response for individual plants was determined by comparing to untreated plants of similar genetic background. Visual injury was scored on a scale of 0 to 100% injury (0=no effect to 100=dead plant). The lowest response for four treated plants of a single event from each construct with the listed expression cassette is reported.

Row | Molecule | Lowest % injury (soybean plants [1]) [%] | Lowest % injury (soybean plants [2]) [%] | Lowest % injury Chlorimuron (soybean plants [3]) [%] | Lowest % injury Imazapyr (soybean plants [3]) [%] | Lowest % injury Rimsulfuron (soybean plants [3]) [%] | Lowest % injury Thifensulfuron-methyl (soybean plants [3]) [%] | Lowest % injury Tribenuron-methyl (soybean plants [3]) [%]
1 | B1 | 5 | 13 | 20 | 40 | 70 | 20 | 20
2 | B2 | 75 | – | 5 | 50 | 80 | 0 | 55
3 | B3 | 80 | – | – | – | – | – | –
4 | B4 | 80 | – | – | – | – | – | –
5 | B5 | 40 | 57 | 35 | 45 | 80 | 35 | 65
6 | B6 | 0 | – | 0 | – | 80 | 25 | 80
7 | B7 | 10 | 5 | – | – | – | – | 75
8 | B8 | 80 | – | – | – | – | – | –
9 | B9 | 75 | – | 5 | 10 | 80 | 5 | –
